Our source for the stoichiometry N (EndoS2 molecules per Fc homodimer) values is publication doi:10.1101/2023.08.15.553389.

The target in this experiment is IgG1 Fc L234C/E382A ("less-crystallisable" Fc with L234C exchange). Put plainly: crystal structure.

B1: EndoS2 (38-843) D184A/E186L, inactive exchange variant (enzyme)
chain: EKTVQTGKTDQQVGAKLVQEIREGKRGPLYAGYFRTWHDRASTGIDGKQQHPENTMAEVPKEVDILFVFHDHTASDSPFWSELKDSYVHKLHQQGTALVQTIGVNELNGRTGLSKDYPDTPEGNKALAAAIVKAFVTDRGVDGLDIAILHEFTNKRTPEEDARALNVFKEIAQLIGKNGSDKSKLLIMDTTLSVENNPIFKGIAEDLDYLLRQYYGSQGGEAEVDTINSDWNQYQNYIDASQFMIGFSFFEESASKGNLWFDVNEYDPNNPEKGKDIEGTRAKKYAEWQPSTGGLKAGIFSYAIDRDGVAHVPSTYKNRTSTNLQRHEVDNISHTDYTVSRKLKTLMTEDKRYDVIDQKDIPDPALREQIIQQVGQYKGDLERYNKTLVLTGDKIQNLKGLEKLSKLQKLELRQLSNVKEITPELLPESMKKDAELVMVGMTGLEKLNLSGLNRQTLDGIDVNSITHLTSFDISHNSLDLSEKSEDRKLLMTLMEQVSNHQKITVKNTAFENQKPKGYYPQTYDTKEGHYDVDNAEHDILTDFVFGTVTKRNTFIGDEEAFAIYKEGAVDGRQYVSKDYTYEAFRKDYKGYKVHLTASNLGETVTSKVTATTDETYLVDVSDGEKVVHHMKLNIGSGAIMMENLAKGAKVIGTSGDFEQAKKIFDGEKSDRFFTWGQTNWIAFDLGEINLAKEWRLFNAETNTEIKTDSSLNVAKGRLQILKDTTIDLEKMDIKNRKEYLSNDENWTDVAQMDDAKAIFNSKLSNVLSRYWRFCVDGGASSYYPQYTELQILGQRLSNDVANTLKD
In turn, B1 gave a stoichiometry N (EndoS2 molecules per Fc homodimer) of 2.
